Laboratory results reported in publication PMC5477534.

Tested on: lac repressor (LacI)
Experiment: SFM imaging
Details: streptavidin bound, SFM: 7.5 nM LacI, about 30 min incubation, 100 uM NTPs for 60 s, EDTA quench, poly-L-ornithine-coated mica, buffer, salt, pH and temperature not in the …

**Q.** With O2-400-O1 SFM template as the substance, how does the binding signal (% looped molecules) (LacI, with transcription (NTP), downstream-end biotin) read?
**A.** Its binding signal (% looped molecules) is 14.

**Q.** And the binding signal (% looped molecules) (LacI, without transcription, downstream-end biotin)?
**A.** The binding signal (% looped molecules) was 12.

**Q.** Os-400-O1 SFM template was tested. Which binding signal (% looped molecules) (7.5 nM LacI, with transcription (NTP), 3'/downstream-end biotin) did it give?
**A.** The binding signal (% looped molecules) was 50.

**Q.** And the binding signal (% operator occupancy) (7.5 nM LacI, without NTP (drops about 20% with transcription), 3'/downstream-end biotin)?
**A.** The binding signal (% operator occupancy) was > 90.

**Q.** And the binding signal (% looped molecules) (7.5 nM LacI, without transcription, 3'/downstream-end biotin)?
**A.** Its binding signal (% looped molecules) is 34.
